Experimental data published in PMC9798004 (Frontiers in Psychiatry, 2022).
Values joined by “and” are separate entries in the source; they are usually repeats but may differ in a detail not shown here. Identical values can stand only once.

What was measured:
Type in all cases: cell-based
CXCR1 = target: T1, CXCR1 (Homo sapiens, UniProt P25024); assay: PathHunter β-arrestin assay; conditions: screen, control agonist; U20S, 37C, 2HR
T1 construct: purchased Eurofins DiscoverX (PathHunter gpcrMAX)
T1 sequence (P25024 1-350): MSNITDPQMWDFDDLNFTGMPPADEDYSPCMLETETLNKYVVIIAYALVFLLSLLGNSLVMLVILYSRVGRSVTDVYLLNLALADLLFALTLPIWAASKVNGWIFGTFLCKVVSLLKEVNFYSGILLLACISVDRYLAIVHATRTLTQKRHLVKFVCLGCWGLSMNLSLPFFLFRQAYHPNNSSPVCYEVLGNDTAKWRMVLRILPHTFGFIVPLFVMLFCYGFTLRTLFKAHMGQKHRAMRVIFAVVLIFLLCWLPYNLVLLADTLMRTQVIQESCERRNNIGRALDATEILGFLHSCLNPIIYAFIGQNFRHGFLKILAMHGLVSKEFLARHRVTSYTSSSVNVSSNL

CXCR2 = target: T2, CXCR2 (Homo sapiens, UniProt P25025); assay: PathHunter β-arrestin assay; conditions: screen, control agonist; CHO, 37C, 2HR
T2 construct: purchased Eurofins DiscoverX (PathHunter gpcrMAX)
T2 sequence (P25025 1-360): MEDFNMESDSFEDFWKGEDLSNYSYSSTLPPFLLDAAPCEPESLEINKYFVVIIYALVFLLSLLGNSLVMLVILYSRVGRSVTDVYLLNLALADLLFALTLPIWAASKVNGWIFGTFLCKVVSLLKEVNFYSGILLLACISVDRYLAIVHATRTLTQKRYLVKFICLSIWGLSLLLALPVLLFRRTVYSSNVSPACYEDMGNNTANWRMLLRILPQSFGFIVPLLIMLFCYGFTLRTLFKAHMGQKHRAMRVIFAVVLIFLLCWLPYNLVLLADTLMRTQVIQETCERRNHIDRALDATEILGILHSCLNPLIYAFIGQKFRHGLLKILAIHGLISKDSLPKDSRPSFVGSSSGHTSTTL

CNR1 (CB1) = target: T3, CNR1 (CB1) (Homo sapiens, UniProt P21554); assay: PathHunter β-arrestin assay; conditions: screen, control agonist; CHO, 37C, 2HR
T3 construct: host or cells: CHO

CNR2 = target: T4, CNR2 (Homo sapiens, UniProt P34972); assay: PathHunter β-arrestin assay; conditions: screen, control agonist; CHO, RT, 2HR
T4 construct: purchased Eurofins DiscoverX (PathHunter gpcrMAX)

[1] = tested on: AtT20 cells wildtype (WT); assay: LDH release cytotoxicity assay; conditions: 30 μM
Experimental: AtT20 cells expressing either human CB1 (hCB1) or CB2 (hCB2) receptors or wildtype (WT) were grown to confluence in T75 cm^2 flasks in Dulbecco's modified eagle medium containing 10% fetal bovine serum, 100 U penicillin/streptomycin, and 80 μg/mL hygromicyin (Sigma-Aldrich/Merck; Castle Hill, NSW, Australia). Cells were plated in 96-well-microplates at 30,000 cells per well and allowed to adhere overnight in 5% CO2. The following morning, cells were treated with either vehicle (0.1% DMSO; negative control), 30 μM Δ^9-THC, or 30 μM AMB-FUBINACA. At 1 or 6 h, the amount of lactate dehydrogenase in the cell media was tested, and compared with positive control (lysed cells) as per manufacturer's instructions (Dojindo Molecular Technologies, Inc.; Rockville, MD, USA), with readings performed on a Clariostar Plus plate reader (BMG Labtech, Mornington, VIC, Australia). Experiments were performed in triplicate. In order to measure any accumulating LDH, media was not changed after initial incubation. Data is represented as means ± S.E.M. A two-way ANOVA with was performed on the data at each time point, with Tukey's multiple comparison test (α = 0.05). A p < 0.05 was considered statistically significant.

CRHR2 = target: T5, CRHR2 (Homo sapiens, UniProt Q13324); assay: PathHunter β-arrestin assay; conditions: screen, control agonist; CHO, RT, 2HR
T5 construct: purchased Eurofins DiscoverX (PathHunter gpcrMAX)

CXCR4 = target: T6, CXCR4 (Homo sapiens, UniProt P61073); assay: PathHunter β-arrestin assay; conditions: screen, control agonist; C2C12, 37C, 2HR
T6 construct: purchased Eurofins DiscoverX (PathHunter gpcrMAX)

CHRM2 = target: T7, CHRM2 (Homo sapiens, UniProt P08172); assay: PathHunter β-arrestin assay; conditions: control agonist
T7 sequence (P08172 1-466): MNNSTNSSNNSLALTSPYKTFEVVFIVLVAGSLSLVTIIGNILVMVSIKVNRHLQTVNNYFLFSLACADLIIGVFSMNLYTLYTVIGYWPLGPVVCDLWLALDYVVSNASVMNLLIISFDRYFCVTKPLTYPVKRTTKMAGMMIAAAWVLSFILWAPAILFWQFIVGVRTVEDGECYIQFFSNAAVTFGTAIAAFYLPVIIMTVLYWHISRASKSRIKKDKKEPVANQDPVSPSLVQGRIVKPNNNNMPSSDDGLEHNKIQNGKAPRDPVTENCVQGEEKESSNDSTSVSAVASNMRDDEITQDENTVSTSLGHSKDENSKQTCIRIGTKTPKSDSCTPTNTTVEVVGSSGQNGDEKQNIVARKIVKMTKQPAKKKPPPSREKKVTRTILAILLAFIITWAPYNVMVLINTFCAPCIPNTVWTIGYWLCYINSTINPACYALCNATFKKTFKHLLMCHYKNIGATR

CHRM3 = CHRM3 (Homo sapiens, UniProt P20309)
CHRM4 = target: T8, CHRM4 (Homo sapiens, UniProt P08173); assay: PathHunter β-arrestin assay; conditions: screen, control agonist; CHO, 37C, 2HR
T8 construct: purchased Eurofins DiscoverX (PathHunter gpcrMAX)

CHRM5 = target: T9, CHRM5 (Homo sapiens, UniProt P08912); assay: PathHunter β-arrestin assay; conditions: screen, control agonist; CHO, 37C, 2HR
T9 construct: purchased Eurofins DiscoverX (PathHunter gpcrMAX)

CRTH2 = target: T10, CRTH2 (Homo sapiens, UniProt Q9Y5Y4); assay: PathHunter β-arrestin assay; conditions: screen, control agonist; U2OS, RT, 2HR
T10 construct: purchased Eurofins DiscoverX (PathHunter gpcrMAX)

CCR1 = target: T11, CCR1 (Homo sapiens, UniProt P32246); assay: PathHunter β-arrestin assay; conditions: screen, control agonist; CHO, 37C, 2HR
T11 construct: purchased Eurofins DiscoverX (PathHunter gpcrMAX)
T11 sequence (P32246 1-355): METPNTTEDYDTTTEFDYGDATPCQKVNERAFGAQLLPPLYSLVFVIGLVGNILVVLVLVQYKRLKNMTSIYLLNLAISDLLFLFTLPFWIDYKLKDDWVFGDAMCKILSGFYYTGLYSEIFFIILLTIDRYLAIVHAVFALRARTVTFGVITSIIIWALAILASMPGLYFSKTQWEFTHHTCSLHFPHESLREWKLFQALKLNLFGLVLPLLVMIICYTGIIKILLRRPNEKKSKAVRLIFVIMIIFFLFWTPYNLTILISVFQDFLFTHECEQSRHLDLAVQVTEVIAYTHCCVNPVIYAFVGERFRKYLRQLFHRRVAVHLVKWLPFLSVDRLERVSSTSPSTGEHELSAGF

CCR5 = target: T12, CCR5 (Homo sapiens, UniProt P51681); assay: PathHunter β-arrestin assay; conditions: screen, control agonist; CHO, 37C, 2HR
T12 construct: purchased Eurofins DiscoverX (PathHunter gpcrMAX)

CCR3 = target: T13, CCR3 (Homo sapiens, UniProt P51677); assay: PathHunter β-arrestin assay; conditions: screen, control agonist; CHO, 37C, 2HR
T13 construct: purchased Eurofins DiscoverX (PathHunter gpcrMAX)
T13 sequence (P51677 1-355): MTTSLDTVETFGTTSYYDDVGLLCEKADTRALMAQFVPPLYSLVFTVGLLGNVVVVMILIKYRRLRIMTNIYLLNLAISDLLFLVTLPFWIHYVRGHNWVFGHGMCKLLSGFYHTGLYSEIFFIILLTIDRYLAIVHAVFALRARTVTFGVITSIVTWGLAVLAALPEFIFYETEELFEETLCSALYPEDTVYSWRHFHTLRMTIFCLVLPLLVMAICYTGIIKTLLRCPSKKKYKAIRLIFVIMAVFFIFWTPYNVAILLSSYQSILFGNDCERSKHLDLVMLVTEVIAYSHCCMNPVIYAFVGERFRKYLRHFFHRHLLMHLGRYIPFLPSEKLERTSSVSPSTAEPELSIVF

CCR2 = target: T14, CCR2 (Homo sapiens, UniProt P41597); assay: PathHunter β-arrestin assay; conditions: screen, control agonist; CHO, 37C, 2HR
T14 construct: purchased Eurofins DiscoverX (PathHunter gpcrMAX)

CXCR3 = target: T15, CXCR3 (Homo sapiens, UniProt P49682); assay: PathHunter β-arrestin assay; conditions: screen, control agonist; CHO, 37C, 2HR
T15 construct: purchased Eurofins DiscoverX (PathHunter gpcrMAX)
T15 sequence (P49682 1-368): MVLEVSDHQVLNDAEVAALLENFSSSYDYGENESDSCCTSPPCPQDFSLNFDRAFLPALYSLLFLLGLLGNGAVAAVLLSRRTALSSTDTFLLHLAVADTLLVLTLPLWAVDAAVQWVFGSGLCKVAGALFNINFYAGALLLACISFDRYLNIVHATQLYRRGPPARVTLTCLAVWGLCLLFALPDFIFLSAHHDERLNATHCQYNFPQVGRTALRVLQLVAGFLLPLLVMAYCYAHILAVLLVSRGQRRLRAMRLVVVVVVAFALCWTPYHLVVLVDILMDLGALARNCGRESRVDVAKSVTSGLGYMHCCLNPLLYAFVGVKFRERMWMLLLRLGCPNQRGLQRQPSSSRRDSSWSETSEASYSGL

CCR7 = target: T16, CCR7 (Homo sapiens, UniProt P32248); assay: PathHunter β-arrestin assay; conditions: screen, control agonist; CHO, 37C, 2HR
T16 construct: purchased Eurofins DiscoverX (PathHunter gpcrMAX)
T16 sequence (P32248 25-378): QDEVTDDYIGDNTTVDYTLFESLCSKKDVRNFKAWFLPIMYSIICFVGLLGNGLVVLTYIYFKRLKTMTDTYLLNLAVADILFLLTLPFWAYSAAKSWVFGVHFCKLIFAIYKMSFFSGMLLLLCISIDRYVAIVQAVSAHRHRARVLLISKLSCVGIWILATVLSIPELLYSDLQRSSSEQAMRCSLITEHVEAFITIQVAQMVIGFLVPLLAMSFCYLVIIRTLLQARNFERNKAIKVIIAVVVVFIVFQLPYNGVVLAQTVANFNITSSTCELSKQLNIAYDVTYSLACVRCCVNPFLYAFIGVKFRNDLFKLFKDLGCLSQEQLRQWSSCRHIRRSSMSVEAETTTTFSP

CXCR5 = target: T17, CXCR5 (Homo sapiens, UniProt P32302); assay: PathHunter β-arrestin assay; conditions: screen, control agonist; CHO, 37C, 2HR
T17 construct: purchased Eurofins DiscoverX (PathHunter gpcrMAX)
T17 sequence (P32302 1-372): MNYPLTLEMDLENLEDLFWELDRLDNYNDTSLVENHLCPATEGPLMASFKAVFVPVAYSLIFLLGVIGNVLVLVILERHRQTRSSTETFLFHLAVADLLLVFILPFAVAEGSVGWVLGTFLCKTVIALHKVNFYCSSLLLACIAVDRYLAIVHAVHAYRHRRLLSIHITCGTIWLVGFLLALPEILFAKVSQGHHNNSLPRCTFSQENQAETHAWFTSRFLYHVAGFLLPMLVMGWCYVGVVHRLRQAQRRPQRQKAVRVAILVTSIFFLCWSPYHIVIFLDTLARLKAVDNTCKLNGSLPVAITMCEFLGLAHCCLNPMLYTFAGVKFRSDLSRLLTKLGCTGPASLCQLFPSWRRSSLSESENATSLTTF

CX3CR1 = target: T18, CX3CR1 (Homo sapiens, UniProt P49238); assay: PathHunter β-arrestin assay; conditions: screen, control agonist; CHO, 37C, 2HR
T18 construct: purchased Eurofins DiscoverX (PathHunter gpcrMAX)
T18 sequence (P49238 1-355): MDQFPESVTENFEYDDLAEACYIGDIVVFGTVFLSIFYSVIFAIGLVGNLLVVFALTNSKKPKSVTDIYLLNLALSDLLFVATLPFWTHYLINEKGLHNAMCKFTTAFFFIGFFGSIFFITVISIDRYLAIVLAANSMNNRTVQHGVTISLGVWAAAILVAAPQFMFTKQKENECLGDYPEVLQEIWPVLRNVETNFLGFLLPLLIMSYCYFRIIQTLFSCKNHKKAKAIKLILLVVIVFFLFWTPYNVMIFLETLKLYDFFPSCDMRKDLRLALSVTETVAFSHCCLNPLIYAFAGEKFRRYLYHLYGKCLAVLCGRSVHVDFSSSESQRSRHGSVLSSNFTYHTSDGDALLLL

CHRM3, sequence (P20309 whole entry): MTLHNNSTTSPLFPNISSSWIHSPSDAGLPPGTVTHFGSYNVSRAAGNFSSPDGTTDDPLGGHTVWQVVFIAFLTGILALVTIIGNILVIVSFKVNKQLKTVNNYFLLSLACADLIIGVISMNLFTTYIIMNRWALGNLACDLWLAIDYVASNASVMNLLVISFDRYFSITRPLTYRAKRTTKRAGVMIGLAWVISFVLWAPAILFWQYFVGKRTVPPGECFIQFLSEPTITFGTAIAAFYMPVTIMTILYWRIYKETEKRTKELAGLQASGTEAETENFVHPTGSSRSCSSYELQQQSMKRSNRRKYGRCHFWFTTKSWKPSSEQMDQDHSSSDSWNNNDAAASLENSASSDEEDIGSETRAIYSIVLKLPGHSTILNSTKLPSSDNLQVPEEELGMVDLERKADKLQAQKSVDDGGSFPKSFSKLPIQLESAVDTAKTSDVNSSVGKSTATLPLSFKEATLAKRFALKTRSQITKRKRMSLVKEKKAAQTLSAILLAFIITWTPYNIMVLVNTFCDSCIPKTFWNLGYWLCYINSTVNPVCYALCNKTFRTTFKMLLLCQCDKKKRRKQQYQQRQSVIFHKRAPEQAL
T8 sequence (P08173 whole entry): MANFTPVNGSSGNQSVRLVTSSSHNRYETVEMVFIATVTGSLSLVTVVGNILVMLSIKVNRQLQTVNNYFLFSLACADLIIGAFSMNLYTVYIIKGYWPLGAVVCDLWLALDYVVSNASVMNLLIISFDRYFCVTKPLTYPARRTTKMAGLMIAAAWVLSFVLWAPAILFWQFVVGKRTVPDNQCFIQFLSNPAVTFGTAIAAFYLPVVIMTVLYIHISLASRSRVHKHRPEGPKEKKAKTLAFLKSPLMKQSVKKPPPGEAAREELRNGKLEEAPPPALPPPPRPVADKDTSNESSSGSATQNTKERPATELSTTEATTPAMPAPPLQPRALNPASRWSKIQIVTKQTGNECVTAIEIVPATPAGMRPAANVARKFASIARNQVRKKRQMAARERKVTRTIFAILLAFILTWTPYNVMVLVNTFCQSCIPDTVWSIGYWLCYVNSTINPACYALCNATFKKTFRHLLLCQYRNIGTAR
T14 sequence (P41597 whole entry): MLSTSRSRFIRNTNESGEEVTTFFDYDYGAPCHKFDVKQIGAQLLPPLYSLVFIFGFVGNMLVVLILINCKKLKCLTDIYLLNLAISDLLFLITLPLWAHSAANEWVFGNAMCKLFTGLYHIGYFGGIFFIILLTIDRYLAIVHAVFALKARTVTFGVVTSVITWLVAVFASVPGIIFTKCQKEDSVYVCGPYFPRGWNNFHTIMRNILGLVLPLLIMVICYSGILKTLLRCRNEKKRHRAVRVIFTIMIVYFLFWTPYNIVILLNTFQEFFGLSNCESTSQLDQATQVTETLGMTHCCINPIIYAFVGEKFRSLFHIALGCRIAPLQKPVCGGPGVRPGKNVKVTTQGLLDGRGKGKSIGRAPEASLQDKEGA
T3 sequence (P21554 whole entry): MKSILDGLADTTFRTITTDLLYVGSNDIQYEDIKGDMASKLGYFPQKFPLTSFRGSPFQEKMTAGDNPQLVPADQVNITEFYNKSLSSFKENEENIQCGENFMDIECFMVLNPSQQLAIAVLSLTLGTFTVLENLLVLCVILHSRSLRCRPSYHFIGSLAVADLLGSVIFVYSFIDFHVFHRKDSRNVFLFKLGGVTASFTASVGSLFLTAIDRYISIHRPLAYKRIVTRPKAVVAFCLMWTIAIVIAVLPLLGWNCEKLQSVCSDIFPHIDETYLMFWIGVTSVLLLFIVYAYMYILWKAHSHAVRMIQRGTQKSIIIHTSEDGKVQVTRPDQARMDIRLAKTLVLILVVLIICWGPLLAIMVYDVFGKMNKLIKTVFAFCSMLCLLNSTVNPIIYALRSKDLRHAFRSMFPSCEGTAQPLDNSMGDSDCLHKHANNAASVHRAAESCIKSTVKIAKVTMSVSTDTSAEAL
T9 sequence (P08912 whole entry): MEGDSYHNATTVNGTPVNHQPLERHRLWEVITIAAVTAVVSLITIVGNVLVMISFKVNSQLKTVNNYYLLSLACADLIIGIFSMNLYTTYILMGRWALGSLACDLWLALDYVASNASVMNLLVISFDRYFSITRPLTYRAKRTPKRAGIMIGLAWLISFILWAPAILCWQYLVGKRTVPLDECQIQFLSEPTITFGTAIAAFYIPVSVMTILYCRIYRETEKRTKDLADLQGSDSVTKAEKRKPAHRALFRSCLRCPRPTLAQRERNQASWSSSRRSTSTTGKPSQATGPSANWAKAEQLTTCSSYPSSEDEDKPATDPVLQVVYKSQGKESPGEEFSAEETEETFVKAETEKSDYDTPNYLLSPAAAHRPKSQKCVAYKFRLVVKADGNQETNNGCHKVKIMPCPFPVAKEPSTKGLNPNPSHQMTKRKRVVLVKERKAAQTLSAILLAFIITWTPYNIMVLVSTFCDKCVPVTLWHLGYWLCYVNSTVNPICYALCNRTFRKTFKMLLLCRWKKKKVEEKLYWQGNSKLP
T5 sequence (Q13324 whole entry): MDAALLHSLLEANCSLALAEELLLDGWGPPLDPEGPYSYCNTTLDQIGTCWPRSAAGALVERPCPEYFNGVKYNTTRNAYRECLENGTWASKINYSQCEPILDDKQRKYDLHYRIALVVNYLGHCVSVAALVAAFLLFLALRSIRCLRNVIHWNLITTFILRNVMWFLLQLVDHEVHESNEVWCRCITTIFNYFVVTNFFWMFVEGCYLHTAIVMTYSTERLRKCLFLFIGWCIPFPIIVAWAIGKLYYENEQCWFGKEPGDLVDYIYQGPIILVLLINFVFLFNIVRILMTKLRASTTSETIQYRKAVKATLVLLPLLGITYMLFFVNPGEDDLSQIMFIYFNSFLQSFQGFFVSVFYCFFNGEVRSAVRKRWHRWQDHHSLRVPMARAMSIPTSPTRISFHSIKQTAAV
T12 sequence (P51681 whole entry): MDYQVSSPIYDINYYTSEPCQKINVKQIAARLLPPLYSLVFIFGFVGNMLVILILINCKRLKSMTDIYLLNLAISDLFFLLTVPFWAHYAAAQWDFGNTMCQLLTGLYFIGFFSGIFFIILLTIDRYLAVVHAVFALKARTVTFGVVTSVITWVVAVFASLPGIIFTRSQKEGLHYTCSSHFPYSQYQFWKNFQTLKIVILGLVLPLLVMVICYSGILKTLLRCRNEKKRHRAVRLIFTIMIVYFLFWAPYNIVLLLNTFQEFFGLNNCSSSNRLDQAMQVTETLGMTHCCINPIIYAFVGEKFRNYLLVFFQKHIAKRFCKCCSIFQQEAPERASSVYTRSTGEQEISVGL
T10 sequence (Q9Y5Y4 whole entry): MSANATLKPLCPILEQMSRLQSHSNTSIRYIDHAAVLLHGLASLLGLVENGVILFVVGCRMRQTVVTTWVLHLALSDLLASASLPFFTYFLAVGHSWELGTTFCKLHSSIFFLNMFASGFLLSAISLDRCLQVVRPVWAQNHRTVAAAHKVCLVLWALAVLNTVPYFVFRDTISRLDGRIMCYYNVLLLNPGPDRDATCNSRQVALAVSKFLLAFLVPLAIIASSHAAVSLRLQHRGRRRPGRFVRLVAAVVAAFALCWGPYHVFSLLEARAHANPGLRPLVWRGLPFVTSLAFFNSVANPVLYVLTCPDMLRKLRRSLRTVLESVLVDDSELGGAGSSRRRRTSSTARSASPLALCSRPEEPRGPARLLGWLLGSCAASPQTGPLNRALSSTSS
T6 sequence (P61073 whole entry): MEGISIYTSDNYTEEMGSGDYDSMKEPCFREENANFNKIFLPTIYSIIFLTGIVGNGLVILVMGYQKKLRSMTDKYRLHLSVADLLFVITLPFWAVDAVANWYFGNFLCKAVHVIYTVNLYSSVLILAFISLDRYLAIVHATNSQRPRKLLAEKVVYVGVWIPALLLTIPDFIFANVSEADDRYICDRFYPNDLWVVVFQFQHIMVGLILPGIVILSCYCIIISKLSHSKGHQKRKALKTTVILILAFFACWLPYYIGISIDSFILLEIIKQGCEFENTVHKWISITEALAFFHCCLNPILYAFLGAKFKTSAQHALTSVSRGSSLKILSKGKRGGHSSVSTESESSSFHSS
T4 sequence (P34972 whole entry): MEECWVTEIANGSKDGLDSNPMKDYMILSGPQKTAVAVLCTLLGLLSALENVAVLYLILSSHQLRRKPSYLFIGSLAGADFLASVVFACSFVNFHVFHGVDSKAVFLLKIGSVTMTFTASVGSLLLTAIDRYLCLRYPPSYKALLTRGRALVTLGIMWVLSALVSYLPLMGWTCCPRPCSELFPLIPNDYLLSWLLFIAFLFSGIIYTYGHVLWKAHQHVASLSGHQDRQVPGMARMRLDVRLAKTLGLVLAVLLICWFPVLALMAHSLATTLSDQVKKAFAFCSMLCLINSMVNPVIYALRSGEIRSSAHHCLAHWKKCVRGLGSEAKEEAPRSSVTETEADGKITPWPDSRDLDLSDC

CXCL8: control agonist
EC80 (CXCR1): 4.95 nM
EC80 (CXCR2): 953 pM

CCCCCCC(C)(C)c1ccc([C@@H]2C[C@H](O)CC[C@H]2CCCO)c(O)c1 [CP55940]
EC80 (CNR1 (CB1)): 0.0203 µM
EC80 (CNR2): 4.12 nM
LDH in cell media, normalized to total LDH ([1]; 1 h): 28.90 ± 7.81%
LDH increase compared with vehicle ([1]; 6 h): no effect was observed

Sauvagine
EC80 (CRHR2): 0.0247 µM

CXCL12: control agonist
EC80 (CXCR4): 5.15 nM

CC(=O)OCC[N+](C)(C)C [Acetylcholine]
EC80 (CHRM2; follow-up concentration-response assays): 24.817 µM
EC80 (CHRM2; screen, CHO, 37C, 2HR): 24.8 µM
EC80 (CHRM3): 3.54 µM and 3.5393 µM
EC80 (CHRM4): 3.91 µM
EC80 (CHRM5): 1.03 µM

CCCCC[C@H](O)/C=C/[C@H]1C(=O)C[C@H](O)[C@@H]1C/C=C\CCCC(=O)O [PGD2]
EC80 (CRTH2): 0.0238 µM

CCL3: control agonist
EC80 (CCR1): 2.53 nM
EC80 (CCR5): 0.0101 µM

CCL13: control agonist
EC80 (CCR3): 0.0464 µM

CCL2: control agonist
EC80 (CCR2): 6.98 nM

CXCL11: control agonist
EC80 (CXCR3): 0.0179 µM

CCL19: control agonist
EC80 (CCR7): 0.0189 µM

CXCL13: control agonist
EC80 (CXCR5): 0.0613 µM

B1: Fractalkine: control agonist (protein, UniProt P78423 25-397, looked up)
Fractalkine: QHHGVTKCNITCSKMTSKIPVALLIHYQQNQASCGKRAIILETRQHRLFCADPKEQWVKDAMQHLDRQAAALTRNGGTFEKQIGEVKPRTTPAAGGMDESVVLEPEATGESSSLEPTPSSQEAQRALGTSPELPTGVTGSSGTRLPPTPKAQDGGPVGTELFRVPPVSTAATWQSSAPHQPGPSLWAEAKTSEAPSTQDPSTQASTASSPAPEENAPSEGQRVWGQGQSPRPENSLEREEMGPVPAHTDAFQDWGPGSMAHVSVVPVSSEGTPSREPVASGSWTPKAEEPIHATMDPQRLGVLITPVPDAQAATRRQAVGLLAFLGLLFCLGVAMFTYQSLQGCPRKMAGEMAEGLRYIPRSCGSNSYVLVPV
EC80 (CX3CR1): 1.92 nM
